B1: Recombinant PKM2 (His-SUMO tag removed) (enzyme)
chain: not shown
B2: Recombinant PKM1 (His-SUMO tag removed) (enzyme)
chain: not shown
B3: Recombinant SARM1 (affinity tags removed by TEV protease) (natural protein, human, UniProt Q6SZW1 28-724, looked up)
chain: LAVPGPDGGGGTGPWWAAGGRGPREVSPGAGTEVQDALERALPELQQALSALKQAGGARAVGAGLAEVFQLVEEAWLLPAVGREVAQGLCDAIRLDGGLDLLLRLLQAPELETRVQAARLLEQILVAENRDRVARIGLGVILNLAKEREPVELARSVAGILEHMFKHSEETCQRLVAAGGLDAVLYWCRRTDPALLRHCALALGNCALHGGQAVQRRMVEKRAAEWLFPLAFSKEDELLRLHACLAVAVLATNKEVEREVERSGTLALVEPLVASLDPGRFARCLVDASDTSQGRGPDDLQRLVPLLDSNRLEAQCIGAFYLCAEAAIKSLQGKTKVFSDIGAIQSLKRLVSYSTNGTKSALAKRALRLLGEEVPRPILPSVPSWKEAEVQTWLQQIGFSKYCESFREQQVDGDLLLRLTEEELQTDLGMKSGITRKRFFRELTELKTFANYSTCDRSNLADWLGSLDPRFRQYTYGLVSCGLDRSLLHRVSEQQLLEDCGIHLGVHRARILTAAREMLHSPLPCTGGKPSGDTPDVFISYRRNSGSQLASLLKVHLQLHGFSVFIDVEKLEAGKFEDKLIQSVMGARNFVLVLSPGALDKCMQDHDCKDWVHKEIVTALSCGKNIVPIIDGFEWPEPQVLPEDMQAVLTFNGIKWSHEYQEATIEKIIRFLQGRSSRDSSAGSDTSLEGAAPMGPT

What was measured:
[1] = target: B3; experiment: SPR
His-tagged PKM1 = His-tagged PKM1 (human, UniProt P14618-2 1-531); experiment: AlphaScreen or HTRF

## B1
[1]
  Kd: 1.31 µM

## B2
[1]
  Kd: 2.89 µM

## B3
His-tagged PKM1
  IC50: 3.46 µM

Source: doi:10.1101/2025.05.28.656718 (bioRxiv, 2025)
